Experimental findings from US20220411487A1 are described below.

Test [1] addresses full length human TMPRSS6 with a C-terminal triple myc tag on HEK293.hHJV cells (HEK293.hHJV/3xMyc.hTMPRSS6) (human) (UniProt Q8IU80). As to the kind of experiment: cell-based or functional assay.
Test [2] concerns the target full-length mouse TMPRSS6 with a C-terminal triple myc tag on HEK293.hHJV cells (HEK293.hHJV/3xMyc.mTMPRSS6) (mouse) (UniProt Q9DBI0). Description: cell-based or functional assay.
Test [3] deals with full length cynomolgous monkey TMPRSS6 on HEK293 cells (HEK293/mfTMPRSS6) (cynomolgous monkey/Macaca fascicularis). Description: flow cytometry, HEK293 cells expressing target.
full length cynomolgous monkey TMPRSS6 on HEK293 cells (HEK293/mfTMPRSS6) (cynomolgous monkey/Macaca fascicularis), sequence (Q8IU80 other isoform, or with tags, fused parts or gaps): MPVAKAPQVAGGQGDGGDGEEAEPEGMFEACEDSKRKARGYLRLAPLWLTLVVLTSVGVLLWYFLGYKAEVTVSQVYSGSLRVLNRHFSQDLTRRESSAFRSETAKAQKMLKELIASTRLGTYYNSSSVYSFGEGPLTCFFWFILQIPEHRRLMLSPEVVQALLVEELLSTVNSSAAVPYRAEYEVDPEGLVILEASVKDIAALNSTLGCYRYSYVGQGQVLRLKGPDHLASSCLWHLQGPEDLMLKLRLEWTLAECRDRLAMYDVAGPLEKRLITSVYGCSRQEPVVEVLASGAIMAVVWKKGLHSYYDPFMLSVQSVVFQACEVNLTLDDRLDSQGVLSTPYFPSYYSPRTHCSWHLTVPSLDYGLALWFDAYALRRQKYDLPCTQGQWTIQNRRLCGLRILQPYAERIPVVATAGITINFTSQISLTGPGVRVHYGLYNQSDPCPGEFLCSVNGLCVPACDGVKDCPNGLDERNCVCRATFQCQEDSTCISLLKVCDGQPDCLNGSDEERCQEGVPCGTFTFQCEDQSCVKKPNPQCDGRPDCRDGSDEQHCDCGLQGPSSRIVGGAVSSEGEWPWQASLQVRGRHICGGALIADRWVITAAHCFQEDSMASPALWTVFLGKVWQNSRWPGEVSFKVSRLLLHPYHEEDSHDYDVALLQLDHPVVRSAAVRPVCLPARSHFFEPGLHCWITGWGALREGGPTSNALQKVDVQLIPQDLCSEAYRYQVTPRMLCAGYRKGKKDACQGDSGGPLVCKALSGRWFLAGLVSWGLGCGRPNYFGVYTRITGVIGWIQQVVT
The target in test [4] is full length human TMPRSS6 on HEK293 cells (HEK293/hTMPRSS6) (human) (UniProt Q8IU80). Description: flow cytometry, HEK293 cells expressing target.
full length human TMPRSS6 on HEK293 cells (HEK293/hTMPRSS6) (human), sequence (Q8IU80 10-811 limits assumed): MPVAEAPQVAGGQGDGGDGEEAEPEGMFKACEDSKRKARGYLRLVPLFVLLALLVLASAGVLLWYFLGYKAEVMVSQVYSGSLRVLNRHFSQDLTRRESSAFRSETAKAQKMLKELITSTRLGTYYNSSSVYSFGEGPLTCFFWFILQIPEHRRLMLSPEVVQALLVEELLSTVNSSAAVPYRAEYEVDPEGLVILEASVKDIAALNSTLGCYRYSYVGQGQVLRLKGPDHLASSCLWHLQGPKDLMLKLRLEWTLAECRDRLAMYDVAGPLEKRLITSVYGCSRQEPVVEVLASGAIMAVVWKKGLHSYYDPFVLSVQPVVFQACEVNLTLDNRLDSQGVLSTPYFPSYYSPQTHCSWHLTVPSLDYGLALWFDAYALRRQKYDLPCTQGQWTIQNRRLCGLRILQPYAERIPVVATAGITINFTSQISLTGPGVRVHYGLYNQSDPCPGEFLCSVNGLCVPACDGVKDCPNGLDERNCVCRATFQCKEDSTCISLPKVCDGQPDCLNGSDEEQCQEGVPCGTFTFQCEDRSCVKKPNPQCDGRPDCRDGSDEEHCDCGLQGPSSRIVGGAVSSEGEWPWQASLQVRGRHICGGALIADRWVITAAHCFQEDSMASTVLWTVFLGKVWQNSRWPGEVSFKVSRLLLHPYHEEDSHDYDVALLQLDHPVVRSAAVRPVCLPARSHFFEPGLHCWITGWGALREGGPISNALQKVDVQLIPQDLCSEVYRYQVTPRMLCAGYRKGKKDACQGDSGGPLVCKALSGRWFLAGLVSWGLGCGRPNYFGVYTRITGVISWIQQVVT
For test [5], the target named is catalytically inactive full length human TMPRSS6 on HEK293 cells (HEK293/hTMPRSS6 (S762A)) (human) (UniProt Q8IU80). Description: flow cytometry, HEK293 cells expressing target.
catalytically inactive full length human TMPRSS6 on HEK293 cells (HEK293/hTMPRSS6 (S762A)) (human), sequence (Q8IU80 10-811 S762A): as the sequence (Q8IU80 10-811 limits assumed) above, with S753A counted along it
Test [6] has as its target full length mouse TMPRSS6 on HEK293 cells (HEK293/mTMPRSS6) (mouse) (UniProt Q9DBI0). As to the kind of experiment: flow cytometry, HEK293 cells expressing target. (In general: A flow cytometer gives signals particle by particle.)
Test [7] concerns the target full length cynomolgous monkey TMPRSS6 on HEK293 cells (HEK293/mfTMPRSS6) (cynomolgous monkey/Macaca fascicularis). Description: flow cytometry, HEK293 cells expressing target, secondary alone.
In test [8] the target is full length human TMPRSS6 on HEK293 cells (HEK293/hTMPRSS6) (human) (UniProt Q8IU80). The description is as above.
Test [9] addresses catalytically inactive full length human TMPRSS6 on HEK293 cells (HEK293/hTMPRSS6 (S762A)) (human) (UniProt Q8IU80). The test is described as above.
The target of test [10] is full length mouse TMPRSS6 on HEK293 cells (HEK293/mTMPRSS6) (mouse) (UniProt Q9DBI0). The description is as above.
full length mouse TMPRSS6 on HEK293 cells (HEK293/mTMPRSS6) (mouse), sequence (Q9DBI0 whole entry): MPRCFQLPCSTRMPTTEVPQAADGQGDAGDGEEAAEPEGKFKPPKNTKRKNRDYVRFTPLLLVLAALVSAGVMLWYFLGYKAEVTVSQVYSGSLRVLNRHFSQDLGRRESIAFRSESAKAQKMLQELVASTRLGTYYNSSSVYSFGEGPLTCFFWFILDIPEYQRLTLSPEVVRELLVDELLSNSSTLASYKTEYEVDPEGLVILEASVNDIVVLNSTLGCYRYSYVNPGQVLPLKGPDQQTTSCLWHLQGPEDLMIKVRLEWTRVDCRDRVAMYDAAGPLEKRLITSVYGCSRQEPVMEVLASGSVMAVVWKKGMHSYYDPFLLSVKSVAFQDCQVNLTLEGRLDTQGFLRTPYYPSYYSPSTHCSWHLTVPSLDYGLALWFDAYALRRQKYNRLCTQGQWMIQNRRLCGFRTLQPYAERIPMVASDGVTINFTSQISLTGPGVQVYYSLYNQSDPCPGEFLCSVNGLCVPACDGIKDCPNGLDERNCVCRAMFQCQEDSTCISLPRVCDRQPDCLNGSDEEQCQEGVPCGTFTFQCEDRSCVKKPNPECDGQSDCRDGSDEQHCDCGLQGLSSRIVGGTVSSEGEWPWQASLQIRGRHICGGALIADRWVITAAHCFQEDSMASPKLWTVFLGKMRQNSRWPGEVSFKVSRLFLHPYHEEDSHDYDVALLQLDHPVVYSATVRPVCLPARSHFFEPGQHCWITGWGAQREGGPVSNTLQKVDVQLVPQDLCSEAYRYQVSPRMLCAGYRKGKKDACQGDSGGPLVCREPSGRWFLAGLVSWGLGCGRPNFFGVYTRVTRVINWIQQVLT

For the substance Isotype Control (antibody), in test [1], the Geometric Mean Fluorescence Intensity of cell surface hHJV turned out to be 11700, the Inhibition (%) of soluble hHJV release (ELISA) came out at 15.7% and the Median Fluorescence Intensity of cell surface hHJV was found to be 13000. In test [2], the Geometric Mean Fluorescence Intensity of cell surface hHJV turned out to be 7750, the Inhibition (%) of soluble hHJV release (ELISA) was determined as 5.2% and the Median Fluorescence Intensity of cell surface hHJV was 7230.

For the substance hIgG Subclass Control (antibody), the Max. Fold Binding (fold over unstained control) in [3] came out at 1; in test [4], 1; in test [5], 3; in test [6], 1.

With “Alexa Fluor-647 conjugated anti-human secondary antibody (Jackson ImmunoResearch #109-607-003)”, the Max. Fold Binding (fold over unstained control) in test [7] came to 1; in test [8] it was 1; in [9], 2; in test [10] it was 1.
